The results in this text go back to paper doi:10.1101/827691.

This test concerns the target α1-subCD3 as used in cross-linking and NMR (apparent molecular weight 27 kDa) (human) (UniProt P05023). Briefly: cross-linking.

As to “N-terminally His6-tagged FGF2 (18 kDa isoform), wild type (from UniProt P09038-2 1-155) (natural protein)”, the stoichiometry N (FGF2 per α1-subCD3) was found to be 1.
